According to patent publication US20120245104A1, “NOVEL RETRO-INVERSO LEPTIN PEPTIDE ANTAGONISTS” (priority 2011, published 2012):
Where no end group is shown, it is not given here. [ ]: non-standard residue; d: D form.

T1: leptin receptor (ObR) (UniProt P48357 22-1165, limits assumed)
T1 sequence (looked up): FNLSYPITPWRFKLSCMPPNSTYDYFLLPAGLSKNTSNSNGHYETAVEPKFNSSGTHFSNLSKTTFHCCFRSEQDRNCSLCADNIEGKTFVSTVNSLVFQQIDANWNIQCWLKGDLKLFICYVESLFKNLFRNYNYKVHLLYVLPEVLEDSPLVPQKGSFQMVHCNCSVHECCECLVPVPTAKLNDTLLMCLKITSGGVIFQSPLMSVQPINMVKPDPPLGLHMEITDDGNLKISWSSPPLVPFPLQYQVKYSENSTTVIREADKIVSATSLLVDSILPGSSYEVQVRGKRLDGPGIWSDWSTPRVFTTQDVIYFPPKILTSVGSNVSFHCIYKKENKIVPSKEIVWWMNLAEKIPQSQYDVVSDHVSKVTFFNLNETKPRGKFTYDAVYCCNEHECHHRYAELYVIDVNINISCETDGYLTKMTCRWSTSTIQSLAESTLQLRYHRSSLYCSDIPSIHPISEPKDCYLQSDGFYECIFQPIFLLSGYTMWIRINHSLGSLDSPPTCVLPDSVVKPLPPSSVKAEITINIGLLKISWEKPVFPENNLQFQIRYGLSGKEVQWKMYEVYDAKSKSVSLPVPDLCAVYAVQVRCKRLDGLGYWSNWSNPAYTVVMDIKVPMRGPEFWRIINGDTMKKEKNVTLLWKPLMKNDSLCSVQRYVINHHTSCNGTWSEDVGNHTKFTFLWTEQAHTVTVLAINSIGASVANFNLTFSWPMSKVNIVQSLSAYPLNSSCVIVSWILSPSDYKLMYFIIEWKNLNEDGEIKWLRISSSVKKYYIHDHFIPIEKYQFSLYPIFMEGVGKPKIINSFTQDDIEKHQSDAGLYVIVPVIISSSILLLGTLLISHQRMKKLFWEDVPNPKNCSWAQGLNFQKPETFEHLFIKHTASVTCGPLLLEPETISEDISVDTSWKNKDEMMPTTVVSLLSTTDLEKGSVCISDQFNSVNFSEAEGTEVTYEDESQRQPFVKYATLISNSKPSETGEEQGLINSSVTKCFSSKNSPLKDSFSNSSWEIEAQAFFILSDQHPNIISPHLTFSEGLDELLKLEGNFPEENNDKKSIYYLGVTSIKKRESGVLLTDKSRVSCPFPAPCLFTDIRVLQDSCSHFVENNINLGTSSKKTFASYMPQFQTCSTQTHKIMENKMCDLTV

B1: Retro-inverso LPA-2(89-72), D-I79 (peptide)
peptide: H-[dV][dH][dL][dL][dD][dR][dL][dN][dE][dL][dI][dN][dS][dI][dQ][dI][dV][dN]-NH2
SMILES: CC[C@@H](C)[C@@H](NC(=O)[C@@H](CC(C)C)NC(=O)[C@@H](CCC(=O)O)NC(=O)[C@@H](CC(N)=O)NC(=O)[C@@H](CC(C)C)NC(=O)[C@@H](CCCNC(=N)N)NC(=O)[C@@H](CC(=O)O)NC(=O)[C@@H](CC(C)C)NC(=O)[C@@H](CC(C)C)NC(=O)[C@@H](Cc1c[nH]cn1)NC(=O)[C@H](N)C(C)C)C(=O)N[C@H](CC(N)=O)C(=O)N[C@H](CO)C(=O)N[C@@H](C(=O)N[C@H](CCC(N)=O)C(=O)N[C@@H](C(=O)N[C@@H](C(=O)N[C@H](CC(N)=O)C(N)=O)C(C)C)[C@H](C)CC)[C@H](C)CC
B2: Retro-inverso LPA-1(24-6), D-T10 (peptide)
peptide: H-[dI][dD][dN][dI][dR][dT][dV][dI][dT][dK][dI][dL][dT][dK][dT][dD][dD][dQ][dV]-NH2
SMILES: CC[C@@H](C)[C@@H](N)C(=O)N[C@H](CC(=O)O)C(=O)N[C@H](CC(N)=O)C(=O)N[C@@H](C(=O)N[C@H](CCCNC(=N)N)C(=O)N[C@@H](C(=O)N[C@@H](C(=O)N[C@@H](C(=O)N[C@@H](C(=O)N[C@H](CCCCN)C(=O)N[C@@H](C(=O)N[C@H](CC(C)C)C(=O)N[C@@H](C(=O)N[C@H](CCCCN)C(=O)N[C@@H](C(=O)N[C@H](CC(=O)O)C(=O)N[C@H](CC(=O)O)C(=O)N[C@H](CCC(N)=O)C(=O)N[C@@H](C(N)=O)C(C)C)[C@H](C)O)[C@H](C)O)[C@H](C)CC)[C@H](C)O)[C@H](C)CC)C(C)C)[C@H](C)O)[C@H](C)CC
B3: Retro-inverso LPA-1(24-6), D-I10 (peptide)
peptide: H-[dI][dD][dN][dI][dR][dT][dV][dI][dT][dK][dI][dL][dT][dK][dI][dD][dD][dQ][dV]-NH2
SMILES: CC[C@@H](C)[C@@H](N)C(=O)N[C@H](CC(=O)O)C(=O)N[C@H](CC(N)=O)C(=O)N[C@@H](C(=O)N[C@H](CCCNC(=N)N)C(=O)N[C@@H](C(=O)N[C@@H](C(=O)N[C@@H](C(=O)N[C@@H](C(=O)N[C@H](CCCCN)C(=O)N[C@@H](C(=O)N[C@H](CC(C)C)C(=O)N[C@@H](C(=O)N[C@H](CCCCN)C(=O)N[C@@H](C(=O)N[C@H](CC(=O)O)C(=O)N[C@H](CC(=O)O)C(=O)N[C@H](CCC(N)=O)C(=O)N[C@@H](C(N)=O)C(C)C)[C@H](C)CC)[C@H](C)O)[C@H](C)CC)[C@H](C)O)[C@H](C)CC)C(C)C)[C@H](C)O)[C@H](C)CC
B4: Full-length LPA-1 (3-34) (peptide)
peptide: IQKVQDDTKTLIKTIVTRINDISHTQSVSSKQ-NH2
B5: Retro-inverso LPA-2(89-72), D-L79 (peptide)
peptide: H-[dV][dH][dL][dL][dD][dR][dL][dN][dE][dL][dL][dN][dS][dI][dQ][dI][dV][dN]-NH2
SMILES: CC[C@@H](C)[C@@H](NC(=O)[C@@H](CO)NC(=O)[C@@H](CC(N)=O)NC(=O)[C@@H](CC(C)C)NC(=O)[C@@H](CC(C)C)NC(=O)[C@@H](CCC(=O)O)NC(=O)[C@@H](CC(N)=O)NC(=O)[C@@H](CC(C)C)NC(=O)[C@@H](CCCNC(=N)N)NC(=O)[C@@H](CC(=O)O)NC(=O)[C@@H](CC(C)C)NC(=O)[C@@H](CC(C)C)NC(=O)[C@@H](Cc1c[nH]cn1)NC(=O)[C@H](N)C(C)C)C(=O)N[C@H](CCC(N)=O)C(=O)N[C@@H](C(=O)N[C@@H](C(=O)N[C@H](CC(N)=O)C(N)=O)C(C)C)[C@H](C)CC
B6: Retro-inverso LPA-2(89-72), D-D79 (peptide)
peptide: H-[dV][dH][dL][dL][dD][dR][dL][dN][dE][dL][dD][dN][dS][dI][dQ][dI][dV][dN]-NH2
SMILES: CC[C@@H](C)[C@@H](NC(=O)[C@@H](CO)NC(=O)[C@@H](CC(N)=O)NC(=O)[C@@H](CC(=O)O)NC(=O)[C@@H](CC(C)C)NC(=O)[C@@H](CCC(=O)O)NC(=O)[C@@H](CC(N)=O)NC(=O)[C@@H](CC(C)C)NC(=O)[C@@H](CCCNC(=N)N)NC(=O)[C@@H](CC(=O)O)NC(=O)[C@@H](CC(C)C)NC(=O)[C@@H](CC(C)C)NC(=O)[C@@H](Cc1c[nH]cn1)NC(=O)[C@H](N)C(C)C)C(=O)N[C@H](CCC(N)=O)C(=O)N[C@@H](C(=O)N[C@@H](C(=O)N[C@H](CC(N)=O)C(N)=O)C(C)C)[C@H](C)CC
B7: Retro-inverso LPA-1(24-6), D-V10 (peptide)
peptide: H-[dI][dD][dN][dI][dR][dT][dV][dI][dT][dK][dI][dL][dT][dK][dV][dD][dD][dQ][dV]-NH2
SMILES: CC[C@@H](C)[C@@H](N)C(=O)N[C@H](CC(=O)O)C(=O)N[C@H](CC(N)=O)C(=O)N[C@@H](C(=O)N[C@H](CCCNC(=N)N)C(=O)N[C@@H](C(=O)N[C@@H](C(=O)N[C@@H](C(=O)N[C@@H](C(=O)N[C@H](CCCCN)C(=O)N[C@@H](C(=O)N[C@H](CC(C)C)C(=O)N[C@@H](C(=O)N[C@H](CCCCN)C(=O)N[C@@H](C(=O)N[C@H](CC(=O)O)C(=O)N[C@H](CC(=O)O)C(=O)N[C@H](CCC(N)=O)C(=O)N[C@@H](C(N)=O)C(C)C)C(C)C)[C@H](C)O)[C@H](C)CC)[C@H](C)O)[C@H](C)CC)C(C)C)[C@H](C)O)[C@H](C)CC
B8: Retro-inverso LPA-2(89-72), D-V79 (peptide)
peptide: H-[dV][dH][dL][dL][dD][dR][dL][dN][dE][dL][dV][dN][dS][dI][dQ][dI][dV][dN]-NH2
SMILES: CC[C@@H](C)[C@@H](NC(=O)[C@@H](CO)NC(=O)[C@@H](CC(N)=O)NC(=O)[C@H](NC(=O)[C@@H](CC(C)C)NC(=O)[C@@H](CCC(=O)O)NC(=O)[C@@H](CC(N)=O)NC(=O)[C@@H](CC(C)C)NC(=O)[C@@H](CCCNC(=N)N)NC(=O)[C@@H](CC(=O)O)NC(=O)[C@@H](CC(C)C)NC(=O)[C@@H](CC(C)C)NC(=O)[C@@H](Cc1c[nH]cn1)NC(=O)[C@H](N)C(C)C)C(C)C)C(=O)N[C@H](CCC(N)=O)C(=O)N[C@@H](C(=O)N[C@@H](C(=O)N[C@H](CC(N)=O)C(N)=O)C(C)C)[C@H](C)CC
B9: Retro-inverso LPA-1(24-6), D-L10 (peptide)
peptide: H-[dI][dD][dN][dI][dR][dT][dV][dI][dT][dK][dI][dL][dT][dK][dL][dD][dD][dQ][dV]-NH2
SMILES: CC[C@@H](C)[C@@H](N)C(=O)N[C@H](CC(=O)O)C(=O)N[C@H](CC(N)=O)C(=O)N[C@@H](C(=O)N[C@H](CCCNC(=N)N)C(=O)N[C@@H](C(=O)N[C@@H](C(=O)N[C@@H](C(=O)N[C@@H](C(=O)N[C@H](CCCCN)C(=O)N[C@@H](C(=O)N[C@H](CC(C)C)C(=O)N[C@@H](C(=O)N[C@H](CCCCN)C(=O)N[C@H](CC(C)C)C(=O)N[C@H](CC(=O)O)C(=O)N[C@H](CC(=O)O)C(=O)N[C@H](CCC(N)=O)C(=O)N[C@@H](C(N)=O)C(C)C)[C@H](C)O)[C@H](C)CC)[C@H](C)O)[C@H](C)CC)C(C)C)[C@H](C)O)[C@H](C)CC
B10: Truncated LPA-2 (72-89), D79 Ala substitution (peptide)
peptide: NVIQISNALENLRDLLHV-NH2
B11: Truncated LPA-2 (72-89), D79 Val substitution (peptide)
peptide: NVIQISNVLENLRDLLHV-NH2
B12: Truncated LPA-1 (6-24), T10 Ile substitution (peptide)
peptide: VQDDIKTLIKTIVTRINDI-NH2
B13: Truncated LPA-1 (6-24), T10 Val substitution (peptide)
peptide: VQDDVKTLIKTIVTRINDI-NH2
B14: Truncated LPA-2 (72-89), D79 Ile substitution (peptide)
peptide: NVIQISNILENLRDLLHV-NH2
B15: Truncated LPA-1 (6-24), T10 Ala substitution (peptide)
peptide: VQDDAKTLIKTIVTRINDI-NH2
B16: Truncated LPA-2 (72-89), D79 Leu substitution (peptide)
peptide: NVIQISNLLENLRDLLHV-NH2

What follows are binders tested against T1, leptin receptor (ObR) (assay: cell-based or functional assay).

IC50, inhibition of leptin-induced growth of MCF-7 cells | Binder
9.7 nM | B1
16.9 nM | B2
17.6 nM | B3
39.1 nM | B4
18.7 nM | B5
19.4 nM | B6
17.4 nM | B7
13.6 nM | B8
11.8 nM | B9

Target: T1, leptin receptor (ObR)
Assay: cell-based or functional assay
Remark: another data set of the same source

IC50 (half maximal inhibitory concentration), inhibition of leptin-induced cell growth | Binder
54 nM | B10
15.6 nM | B11
21 nM | B12
39.1 nM | B4
20.7 nM | B13
16 nM | B14
88 nM | B15
16 nM | B16
